Test results: patent US20230340054A1 (published 2023)

Assays:
[1] = molecular target: F906-(G2S1)4-IL2(E62A)-(G2S1)6-HLE (IL-2mut); test: BLI
[2] = molecular target: F906-(G2S1)4-IL2-(G2S1)6-HLE (IL2wt); test: BLI

- Kd [1]: ~40 nM
- Kd [2]: ~40 nM
B1: CD122 (receptor)
chain: AVNGTSQFTCFYNSRANISCVWSQDGALQDTSCQVHAWPDRRRWNQTCELLPVSQASWACNLILGAPDSQKLTTVDIVTLRVLCREGVRWRVMAIQDFKPFENLRLMAPISLQVVHVETHRCNISWEISQASHYFERHLEFEARTLSPGHTWEEAPLLTLKQKQEWICLETLTPDTQYEFQVRVKPLQGEFTTWSPWSQPLAFRTKPAALGKD
modifications: biotinylated (site not stated)
